Measurements taken from publication PMC6220267, “High‐affinity interactions and signal transduction between Aβ oligomers and TREM2” (EMBO Molecular Medicine, 2018).

How the values were obtained:
[1] = molecular target: T1, Aβ42 oligomers (soluble) (UniProt P05067 672-713); test: BLI; optimized assay: Protein A sensors loaded to near-saturation with soluble TREM‐Fc‐V5 proteins in PBS; ligand in serial dilution (five concentrations); dissociation in PBS; 1:1 interaction model; conditions: both partners purified
T1 construct: amyloid‐β 1-42 (Aβ42), cut product of the amyloid precursor protein APP; Oligomeric assembly; also called Aβ oligomers; oligomeric Aβ; source: oligomers prepared as described (Stine et al, 2003)

[2] = molecular target: T2, Aβ42 monomers (UniProt P05067 672-713); test: ELISA; plates coated overnight at 4°C with purified soluble TREM‐Fc proteins in 100 mM NaCO3 pH 11, blocked (Block Ace), incubated with Aβ42 monomers, oligomers or fibrils 1 h at room temperature; Aβ detected with 4G8‐HRP, OD450; conditions: both partners purified
T2 construct: amyloid‐β 1-42 (Aβ42), cut product of the amyloid precursor protein APP; also called monomeric Aβ; source: monomers prepared as described (Stine et al, 2003)

[3] = molecular target: T3, Aβ42 fibrils (fibrillar Aβ42) (UniProt P05067 672-713); test: pull-down; Aβ42 fibril pull-down: conditioned media with 5 mM EDTA incubated with Aβ42 fibrils 1 h at room temperature, fibrils pelleted at 18,000 g, washed with PBS; Western blot with V5 antibody; conditions: one partner purified
T3 construct: amyloid‐β 1-42 (Aβ42), cut product of the amyloid precursor protein APP; Fibrillar assembly of the peptide; also called fAβ; Aβ fibrils; source: Pinotsi et al, 2016

Binder	binding result [1]	binding result [2]	binding result [3]
soluble TREML1‐Fc (human, soluble ectodomain) (Fc fusion, UniProt Q86YW5 16-162, looked up, TREML1, human, soluble ectodomain; also called sTREML1‐Fc; source: HEK293T, transiently transfected; conditioned media; purified from conditioned media (anti-human IgG Fc agarose beads)) QGIVGSLPEVLQAPVGSSILVQCHYRLQDVKAQKVWCRFLPEGCQPLVSSAVDRRAPAGRRTFLTDLGGGLLQVEMVTLQEEDAGEYGCMVDGARGPQILHRVSLNILPPEEEEETHKIGSLAENAFSDPAGSANPLEPSQDEKSIP	binds	–	–
soluble mouse Trem2‐Fc (soluble ectodomain) (Fc fusion, UniProt Q99NH8 19-171, looked up, Trem2, mouse, soluble ectodomain; also called sTrem2‐Fc; sTrem2‐FC; source: HEK293T, transiently transfected; conditioned media; purified from conditioned media (anti-human IgG Fc agarose beads)) LNTTVLQGMAGQSLRVSCTYDALKHWGRRKAWCRQLGEEGPCQRVVSTHGVWLLAFLKKRNGSTVIADDTLAGTVTITLKNLQAGDAGLYQCQSLRGREAEVLQKVLVEVLEDPLDDQDAGDLWVPEESSSFEGAQVEHSTSRNQETSFPPTS	binds	binds	binds
soluble mouse Treml1‐Fc (soluble ectodomain) (Fc fusion, UniProt Q8K558 21-175, looked up, Treml1, mouse, soluble ectodomain; also called sTreml1‐Fc; source: HEK293T, transfected, purified from conditioned media (anti-human IgG Fc agarose beads)) DSHPEVLQAPVGSSILVQCHYRLQDVRALKVWCQFLQEGCHPLVTSAVDRRAPGNGRIFLTDLGGGLLQVEMVTLQEEDTGEYGCVVEGAAGPQTLHRVSLLVLPPVPGPREGEEAEDEKETYRIGTGSLLEDPSLDPSASAGPHEFRRRENSIP	binds	–	–
